Assay results published in PMC9754112 (mAbs, 2022).

Key:
[1] = molecular target: recombinant human CTLA-4-His-tag protein (Homo sapiens (Human).) (UniProt P16410); assay: SPR
[2] = molecular target: recombinant human CTLA-4-His-tag protein (Homo sapiens (Human)., UniProt P16410); assay: SPR
Sequence of recombinant human CTLA-4-His-tag protein (P16410 36-161): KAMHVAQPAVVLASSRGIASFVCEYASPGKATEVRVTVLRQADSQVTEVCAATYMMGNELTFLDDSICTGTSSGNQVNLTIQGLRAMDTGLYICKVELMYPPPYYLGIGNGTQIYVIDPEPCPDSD

Sequence of ipilimumab (antibody) (P16410 36-161): as above

Row | Molecule | Kd [1] [nM] | Kd [2] [nM]
1 | ipilimumab (antibody) | 16.1 | –
2 | JS007, humanized IgG1 anti-CTLA-4 monoclonal antibody (antibody, V domains shown) VH: QVQLQESGPGLVKPSQTLSLTCTVSAYSITSGYYWNWIRQHPGKGLEWIGYIGYDGSNNYNPSLKSRVTISRDTSKNQFSLKLSSVTAADTAVYYCARDYYSGYFDSWGQGTTLTVSS VL: DIQMTQSPSSLSASVGDRVTITCRASQNVGTYVAWYQQKPGKVPKPLIYSTSYRYSGVPSRFSGSGSGTDFTLTISSLQPEDVATYFCHQYDTYPLTFGAGTKLELK | – | 0.21
